In one data set the target is T1, NF90dsRBDs-deltaNLS (mouse, UniProt Q9Z1X4 393-592).
T1 sequence: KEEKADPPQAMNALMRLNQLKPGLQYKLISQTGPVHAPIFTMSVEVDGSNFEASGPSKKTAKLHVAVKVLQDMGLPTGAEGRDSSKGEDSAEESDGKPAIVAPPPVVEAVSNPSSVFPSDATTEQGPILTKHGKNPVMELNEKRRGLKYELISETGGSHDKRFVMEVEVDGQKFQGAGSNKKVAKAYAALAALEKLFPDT
Kind of data set: ITC; apparent Kd; unit as printed (mM), possibly uM misprint; 1:2 RNA:protein; EMSA: 20 mM HEPES pH 7.5, 150 mM K acetate, on ice, 1 uM RNA (competition 0.5 uM complex); FA: same buffer, 23.5 C, 250 nM RNA; ITC: 20 mM HEPES pH 7.5, 50 mM NaCl, 25 C. To be noted: protein: recombinant; tags: GST removed by TEV; chain copies: 2; blunt. For orientation: In ITC the heat of successive injections is recorded.

Data set [1] has as its target NF90-deltaC380;NF45-deltaN28 (with NF90-deltaC380) (mouse?;mouse?, UniProt Q9Z1X4;Q9CXY6 1-380;28-390, |). The data set can be described thus: EMSA; EMSA: 20 mM HEPES pH 7.5, 150 mM K acetate, on ice, 1 uM RNA (competition 0.5 uM complex); FA: same buffer, 23.5 C, 250 nM RNA; ITC: 20 mM HEPES pH 7.5, 50 mM NaCl, 25 C. To be noted: protein: recombinant;recombinant; tags: ;; copies: 1;1; label: 5' DY781 on strand 1; blunt. For orientation: Mobility shift assays separate free from complexed probe on a gel.

The next data set concerns the target NF90long;NF45 (mouse;mouse?, UniProt Q9Z1X4;Q9CXY6 1-590;1-390, |). Kind of data set: competition; competes DY781 21mer efficiently; EMSA: 20 mM HEPES pH 7.5, 150 mM K acetate, on ice, 1 uM RNA (competition 0.5 uM complex); FA: same buffer, 23.5 C, 250 nM RNA; ITC: 20 mM HEPES pH 7.5, 50 mM NaCl, 25 C. The conditions noted are these: protein: recombinant;recombinant; tags: 6xHis removed by TEV;6xHis removed by TEV; copies: 1;1; hairpin with mismatches.

For another data set, the target named is T2, NF90dsRBDs (mouse, UniProt Q9Z1X4 380-592).
T2 sequence: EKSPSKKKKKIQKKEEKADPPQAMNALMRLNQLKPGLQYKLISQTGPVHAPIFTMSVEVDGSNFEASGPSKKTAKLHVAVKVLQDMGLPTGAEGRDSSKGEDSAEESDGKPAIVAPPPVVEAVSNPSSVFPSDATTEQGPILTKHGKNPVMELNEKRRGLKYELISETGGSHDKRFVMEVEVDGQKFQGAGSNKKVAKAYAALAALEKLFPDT
The data set can be described thus: fluorescence anisotropy; EMSA: 20 mM HEPES pH 7.5, 150 mM K acetate, on ice, 1 uM RNA (competition 0.5 uM complex); FA: same buffer, 23.5 C, 250 nM RNA; ITC: 20 mM HEPES pH 7.5, 50 mM NaCl, 25 C. To be noted: protein: recombinant; tags: GST removed by TEV; label: 5' Cy3 on strand 1; blunt. (Polarisation of emitted light reports the rotation of a fluorescent probe.)

A further data set addresses NF90long;NF45-deltaN28 (mouse;mouse, UniProt Q9Z1X4;Q9CXY6 1-590;28-390, |). The description is as above. The conditions noted are these: protein: recombinant;recombinant; tags: 6xHis removed by TEV;6xHis removed by TEV; copies: 1;1; label: 5' Cy3 on strand 1; blunt.

B1: 18mer dsRNA, 2'F strand (dsRNA)
RNA 1: UCACUUUCAUAAUGCUGG
RNA 2: CCAGCAUUAUGAAAGUGA
modifications: 2'-F ribose uniformly on strand 1
In the case of B1, in the data set with NF90dsRBDs-deltaNLS, the Kd was around 2400 µM.

B2: 21mer dsRNA, DY781 (dsRNA)
RNA 1: UCACUUUCAUAAUGCUGGAUA
RNA 2: UAUCCAGCAUUAUGAAAGUGA
For the molecule B2, in data set [1], the binding result was “no binding”.

B3: 18mer dsRNA, unmodified (dsRNA)
RNA 1: UCACUUUCAUAAUGCUGG
RNA 2: CCAGCAUUAUGAAAGUGA
Take B3: the Kd in the data set with NF90dsRBDs-deltaNLS was around 2400 µM.

B4: GluA2(R/G) hairpin RNA (structured_RNA)
RNA: CAUUAAGGUGGGUGGAAUAGUAUAACAAUAUGCUAAAUGUUGUUAUAGUAUCCCACCUACCCUGAUG
For the molecule B4, the binding result in the data set with NF90long;NF45 was “binds”.

B5: 21mer dsRNA, Cy3 (dsRNA)
RNA 1: UCACUUUCAUAAUGCUGGAUA
RNA 2: UAUCCAGCAUUAUGAAAGUGA
B5: the Kd is 0.433 ± 0.055 µM with NF90dsRBDs and 0.046 ± 0.016 µM with NF90long;NF45-deltaN28.

(Values after paper PMC4770229, “Nuclear factor 90 uses an ADAR2-like binding mode to recognize specific bases in dsRNA”.)
